Data from PMC5983026, “Intraring allostery controls the function and assembly of a hetero-oligomeric class II chaperonin” (The FASEB Journal, 2018).

Assays:
[1] = substrate: Nc1ncnc2c1ncn2[C@@H]1O[C@H](COP(=O)(O)OP(=O)(O)OP(=O)(O)O)[C@@H](O)[C@H]1O; assay: steady-state ATPase, malachite green phosphate release; format: biochemical, Thermoplasma acidophilum; conditions: 55 °C, pH 7.5, 25 mM Tris-HCl, 50 mM KCl, 20 mM MgCl2, 50 mM NaCl
Text: steady-state ATPase, malachite green phosphate release on Ta thermosome α8β8

[2] = molecular target: the molecule itself; assay: SEC + native gel or EMSA; α (intraloop His6) and β co-expressed in E. coli; complexes purified to homogeneity as in ref. 29; integrity by Superose 6 Increase SEC (main peak ≅950 kDa) and native-PAGE 3–12% (≅1 MDa); subunit composition by Tris-Acetate SDS-PAGE (7%) of the purified proteins
[3] = substrate: Nc1ncnc2c1ncn2[C@@H]1O[C@H](COP(=O)(O)OP(=O)(O)OP(=O)(O)O)[C@@H](O)[C@H]1O; assay: steady-state ATPase, malachite green phosphate release; format: biochemical, Thermoplasma acidophilum; conditions: single transition, 55 °C, pH 7.5, 25 mM Tris-HCl, 50 mM KCl, 20 mM MgCl2, 50 mM NaCl
Text: steady-state ATPase, malachite green phosphate release on WTα16 (α-only thermosome)

[4] = molecular target: the molecule itself; assay: SEC + native gel or EMSA; α subunit expressed in E. coli in the absence of the β; purified α16 complex; integrity by SEC and native PAGE
[5] = single transition, hydrolysis assigned to the WT beta subunits
[6] = single transition, hydrolysis on the WT alpha subunits only

B1: Ta thermosome α8β8 (Thermoplasma acidophilum DSM 1728; P48424:D94A) (protein)
chain 1: MMTGQVPILVLKEGTQREQGKNAQRNNIEAAKAIADAVRTTLGPKGMDKMLVDSIGDIIISNDGATILKEMDVEHPTAKMIVEVSKAQDTAVGAGTTTAVVLSGELLKQAETLLDQGVHPTVISNGYRLAVNEARKIIDEIAEKSTDDATLRKIALTALSGKNTGLSNDFLADLVVKAVNAVAEVRDGKTIVDTANIKVDKKNGGSVNDTQFISGIVIDKEKVHSKMPDVVKNAKIALIDSALEIKKTEIEAKVQISDPSKIQDFLNQETNTFKQMVEKIKKSGANVVLCQKGIDDVAQHYLAKEGIYAVRRVKKSDMEKLAKATGAKIVTDLDDLTPSVLGEAETVEERKIGDDRMTFVMGCKNPKAVSILIRGGTDHVVSEVERALNDAIRVVAITKEDGKFLWGGGAVEAELAMRLAKYANSVGGREQLAIEAFAKALEIIPRTLAENAGIDPINTLIKLKAEHEKGRISVGVDLDNNGVGDMKAKGVVDPLRVKTHALESAVEVATMILRIDDVIASKKSTPPSGQGGQGQGMPGGGMPEY
chain 2: MIAGQPIFILKEGTKRESGKDAMKENIEAAIAISNSVRSSLGPRGMDKMLVDSLGDIVITNDGVTILKEMDVEHPAAKMMVEVSKTQDSFVGDGTTTAVIIAGGLLQQAQGLINQNVHPTVISEGYRMASEEAKRVIDEISTKIGADEKALLLKMAQTSLNSKSASVAKDKLAEISYEAVKSVAELRDGKYYVDFDNIQVVKKQGGAIDDTQLINGIIVDKEKVHPGMPDVVKDAKIALLDAPLEIKKPEFDTNLRIEDPSMIQKFLAQEENMLREMVDKIKSVGANVVITQKGIDDMAQHYLSRAGIYAVRRVKKSDMDKLAKATGASIVSTIDEISSSDLGTAERVEQVKVGEDYMTFVTGCKNPKAVSILVRGETEHVVDEMERSITDSLHVVASALEDGAYAAGGGATAAEIAFRLRSYAQKIGGRQQLAIEKFADAIEEIPRALAENAGLDPIDILLKLRAEHAKGNKTYGINVFTGEIEDMVKNGVIEPIRVGKQAIESATEAAIMILRIDDVIATKSSSSSSNPPKSGSSSESSED
notes: recombinant co-expression in E. coli BL21(DE3) Codon Plus-RIL, construct aK144HTTherm, intraloop His6-tag in each alpha subunit (kept), hexadecamer isolated on Superose 6, about 1 MDa
- Km [1, 5]: 82 ± 8.7 µM
- kcat [1, 5]: 2.4 ± 0.09 mol ATP/(mol active sites × min)

B2: Thermoplasma acidophilum thermosome α subunit D94K, with intraloop His6-tag (natural protein)
chain: MMTGQVPILVLKEGTQREQGKNAQRNNIEAAKAIADAVRTTLGPKGMDKMLVDSIGDIIISNDGATILKEMDVEHPTAKMIVEVSKAQDTAVGKGTTTAVVLSGELLKQAETLLDQGVHPTVISNGYRLAVNEARKIIDEIAEKSTDDATLRKIALTALSGKNTGLSNDFLADLVVKAVNAVAEVRDGKTIVDTANIKVDKKNGGSVNDTQFISGIVIDKEKVHSKMPDVVKNAKIALIDSALEIKKTEIEAKVQISDPSKIQDFLNQETNTFKQMVEKIKKSGANVVLCQKGIDDVAQHYLAKEGIYAVRRVKKSDMEKLAKATGAKIVTDLDDLTPSVLGEAETVEERKIGDDRMTFVMGCKNPKAVSILIRGGTDHVVSEVERALNDAIRVVAITKEDGKFLWGGGAVEAELAMRLAKYANSVGGREQLAIEAFAKALEIIPRTLAENAGIDPINTLIKLKAEHEKGRISVGVDLDNNGVGDMKAKGVVDPLRVKTHALESAVEVATMILRIDDVIASKKSTPPSGQGGQGQGMPGGGMPEY
notes: Thermoplasma acidophilum thermosome α subunit, NCBI CAC12109; site-directed mutant of construct aK144HTTherm; also called D94Kα; not shown: His6, internal (intraloop), kept
- stoichiometry N [2]: 16

B3: Ta thermosome α8β8 (Thermoplasma acidophilum DSM 1728) (protein)
chain 1: MMTGQVPILVLKEGTQREQGKNAQRNNIEAAKAIADAVRTTLGPKGMDKMLVDSIGDIIISNDGATILKEMDVEHPTAKMIVEVSKAQDTAVGDGTTTAVVLSGELLKQAETLLDQGVHPTVISNGYRLAVNEARKIIDEIAEKSTDDATLRKIALTALSGKNTGLSNDFLADLVVKAVNAVAEVRDGKTIVDTANIKVDKKNGGSVNDTQFISGIVIDKEKVHSKMPDVVKNAKIALIDSALEIKKTEIEAKVQISDPSKIQDFLNQETNTFKQMVEKIKKSGANVVLCQKGIDDVAQHYLAKEGIYAVRRVKKSDMEKLAKATGAKIVTDLDDLTPSVLGEAETVEERKIGDDRMTFVMGCKNPKAVSILIRGGTDHVVSEVERALNDAIRVVAITKEDGKFLWGGGAVEAELAMRLAKYANSVGGREQLAIEAFAKALEIIPRTLAENAGIDPINTLIKLKAEHEKGRISVGVDLDNNGVGDMKAKGVVDPLRVKTHALESAVEVATMILRIDDVIASKKSTPPSGQGGQGQGMPGGGMPEY
chain 2: MIAGQPIFILKEGTKRESGKDAMKENIEAAIAISNSVRSSLGPRGMDKMLVDSLGDIVITNDGVTILKEMDVEHPAAKMMVEVSKTQDSFVGDGTTTAVIIAGGLLQQAQGLINQNVHPTVISEGYRMASEEAKRVIDEISTKIGADEKALLLKMAQTSLNSKSASVAKDKLAEISYEAVKSVAELRDGKYYVDFDNIQVVKKQGGAIDDTQLINGIIVDKEKVHPGMPDVVKDAKIALLDAPLEIKKPEFDTNLRIEDPSMIQKFLAQEENMLREMVDKIKSVGANVVITQKGIDDMAQHYLSRAGIYAVRRVKKSDMDKLAKATGASIVSTIDEISSSDLGTAERVEQVKVGEDYMTFVTGCKNPKAVSILVRGETEHVVDEMERSITDSLHVVASALEDGAYAAGGGATAAEIAFRLRSYAQKIGGRQQLAIEKFADAIEEIPRALAENAGLDPIDILLKLRAEHAKGNKTYGINVFTGEIEDMVKNGVIEPIRVGKQAIESATEAAIMILRIDDVIATKSSSSSSNPPKSGSSSESSED
notes: as for B1
- Km ([1]; biphasic, tight site): 15 ± 1.65 µM
- kcat ([1]; biphasic, tight site): 2.15 ± 0.12 mol ATP/(mol active sites × min)

B4: Thermoplasma acidophilum thermosome α subunit T97V, with intraloop His6-tag (natural protein)
chain: MMTGQVPILVLKEGTQREQGKNAQRNNIEAAKAIADAVRTTLGPKGMDKMLVDSIGDIIISNDGATILKEMDVEHPTAKMIVEVSKAQDTAVGDGTVTAVVLSGELLKQAETLLDQGVHPTVISNGYRLAVNEARKIIDEIAEKSTDDATLRKIALTALSGKNTGLSNDFLADLVVKAVNAVAEVRDGKTIVDTANIKVDKKNGGSVNDTQFISGIVIDKEKVHSKMPDVVKNAKIALIDSALEIKKTEIEAKVQISDPSKIQDFLNQETNTFKQMVEKIKKSGANVVLCQKGIDDVAQHYLAKEGIYAVRRVKKSDMEKLAKATGAKIVTDLDDLTPSVLGEAETVEERKIGDDRMTFVMGCKNPKAVSILIRGGTDHVVSEVERALNDAIRVVAITKEDGKFLWGGGAVEAELAMRLAKYANSVGGREQLAIEAFAKALEIIPRTLAENAGIDPINTLIKLKAEHEKGRISVGVDLDNNGVGDMKAKGVVDPLRVKTHALESAVEVATMILRIDDVIASKKSTPPSGQGGQGQGMPGGGMPEY
notes: Thermoplasma acidophilum thermosome α subunit, NCBI CAC12109; site-directed mutant of construct aK144HTTherm; also called T97Vα; not shown: His6, internal (intraloop), kept
- stoichiometry N [2]: 16

B5: Thermoplasma acidophilum thermosome α subunit, wild type, with intraloop His6-tag (natural protein)
chain: MMTGQVPILVLKEGTQREQGKNAQRNNIEAAKAIADAVRTTLGPKGMDKMLVDSIGDIIISNDGATILKEMDVEHPTAKMIVEVSKAQDTAVGDGTTTAVVLSGELLKQAETLLDQGVHPTVISNGYRLAVNEARKIIDEIAEKSTDDATLRKIALTALSGKNTGLSNDFLADLVVKAVNAVAEVRDGKTIVDTANIKVDKKNGGSVNDTQFISGIVIDKEKVHSKMPDVVKNAKIALIDSALEIKKTEIEAKVQISDPSKIQDFLNQETNTFKQMVEKIKKSGANVVLCQKGIDDVAQHYLAKEGIYAVRRVKKSDMEKLAKATGAKIVTDLDDLTPSVLGEAETVEERKIGDDRMTFVMGCKNPKAVSILIRGGTDHVVSEVERALNDAIRVVAITKEDGKFLWGGGAVEAELAMRLAKYANSVGGREQLAIEAFAKALEIIPRTLAENAGIDPINTLIKLKAEHEKGRISVGVDLDNNGVGDMKAKGVVDPLRVKTHALESAVEVATMILRIDDVIASKKSTPPSGQGGQGQGMPGGGMPEY
notes: Thermoplasma acidophilum thermosome α subunit, NCBI CAC12109; also called WTα; weak subunit; not shown: His6, internal (intraloop), kept
- stoichiometry N [2]: 16
- Km [3]: 140 ± 15.7 µM
- kcat [3]: 0.33 ± 0.015 mol ATP/(mol active sites × min)
- stoichiometry N [4]: 16

B6: Ta thermosome α8β8 (Thermoplasma acidophilum DSM 1728; P48425:D93K) (protein)
chain 1: MMTGQVPILVLKEGTQREQGKNAQRNNIEAAKAIADAVRTTLGPKGMDKMLVDSIGDIIISNDGATILKEMDVEHPTAKMIVEVSKAQDTAVGDGTTTAVVLSGELLKQAETLLDQGVHPTVISNGYRLAVNEARKIIDEIAEKSTDDATLRKIALTALSGKNTGLSNDFLADLVVKAVNAVAEVRDGKTIVDTANIKVDKKNGGSVNDTQFISGIVIDKEKVHSKMPDVVKNAKIALIDSALEIKKTEIEAKVQISDPSKIQDFLNQETNTFKQMVEKIKKSGANVVLCQKGIDDVAQHYLAKEGIYAVRRVKKSDMEKLAKATGAKIVTDLDDLTPSVLGEAETVEERKIGDDRMTFVMGCKNPKAVSILIRGGTDHVVSEVERALNDAIRVVAITKEDGKFLWGGGAVEAELAMRLAKYANSVGGREQLAIEAFAKALEIIPRTLAENAGIDPINTLIKLKAEHEKGRISVGVDLDNNGVGDMKAKGVVDPLRVKTHALESAVEVATMILRIDDVIASKKSTPPSGQGGQGQGMPGGGMPEY
chain 2: MIAGQPIFILKEGTKRESGKDAMKENIEAAIAISNSVRSSLGPRGMDKMLVDSLGDIVITNDGVTILKEMDVEHPAAKMMVEVSKTQDSFVGKGTTTAVIIAGGLLQQAQGLINQNVHPTVISEGYRMASEEAKRVIDEISTKIGADEKALLLKMAQTSLNSKSASVAKDKLAEISYEAVKSVAELRDGKYYVDFDNIQVVKKQGGAIDDTQLINGIIVDKEKVHPGMPDVVKDAKIALLDAPLEIKKPEFDTNLRIEDPSMIQKFLAQEENMLREMVDKIKSVGANVVITQKGIDDMAQHYLSRAGIYAVRRVKKSDMDKLAKATGASIVSTIDEISSSDLGTAERVEQVKVGEDYMTFVTGCKNPKAVSILVRGETEHVVDEMERSITDSLHVVASALEDGAYAAGGGATAAEIAFRLRSYAQKIGGRQQLAIEKFADAIEEIPRALAENAGLDPIDILLKLRAEHAKGNKTYGINVFTGEIEDMVKNGVIEPIRVGKQAIESATEAAIMILRIDDVIATKSSSSSSNPPKSGSSSESSED
notes: as for B1
- Km [1, 6]: 285 ± 35 µM
- kcat [1, 6]: 1.7 ± 0.14 mol ATP/(mol active sites × min)
